# Test system: K4 kissing-loop RNA reporter
# Assay: apparent KD of K4 kissing-loop reporter; higher = weaker reporter binding
# Conditions: Eterna round: R107; input ligand: FMN 200 uM
# Experimental: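 RNA-MaP round R107: designed RNA switches with theophylline, tryptophan, arginine or FMN aptamers are transcribed on-chip within common flanks. They are titrated with a labelled K4 kissing-loop RNA reporter in RNA-MaP buffer (100 mM Tris pH 7.5, 80 mM KCl, 4 mM MgCl2), without ligand or with the indicated ligand. Median apparent KD per design.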
# 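Note: bound reporter read as fluorescence of individual clusters on recovered sequencing chips by microscopy, with normalized cluster intensities fitted with a binding model.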
row,Sequence,apparent KD of K4 kissing-loop reporter
1,AGUACAAUGGCGGCCGCCACUCAACGCAGAUCAAAGAUCUGCGUUCACUCAGUGAUGUUGAGUGAGAGGACCGGGCCUUUGUACA [Omei KL Tryp B SS B v5],221 nM
2,UGUCAUUGGUCGGCCGCCACUGAAAUAAAAGAGUGAUGUUCUUAAAAGACGGACAAAGUCUGUCAUAGGACCGGGACCGAUGACU [TrypBS 24 #SwitchBubble #StaticStem],662 nM
3,UAUUAAUUGUCAGGAUAUCGUAUUCGAGUGAUGUUCGUAUAUCGACGAUAGUCGAUAUUAUCUAUACGAGAAGGGACAUUAUUUA [JR_SSFMNB_Sub006],418 nM
4,UGCUUUAUCAGAAGGAGCGCGUAAGUUAUACUAAUAAUCAGUGAUGUUGAUAUAUGAUCUUUGCAGGUAGGUCGCUGAUAUAGCU [KL-XARG-B4],452 nM
5,UUUAAAUAUAGUGAUGUUAUAUAACAAUGACGAGGACCGGUACGGCCGCCACUCGAGAGAGAUAAUGGUCUUACAAAUGUAAGUC [AstrosSSTryA#8],546 nM
6,GGAAUAACCUGGGAUACCAGUCGGAGGACUAGGGAUCGGAGUGAUGUUCUGGGAUGUUUCGGCCCUUGGCAGCUCUGGUUUUCCG [#2 Exclusion - Theophylline B Attempt #1 (HarryS)],569 nM
7,AUGACGGGUAGUGAUGUUAUCCACGAUGGGAAGGAUAUCAACCGUGUGAGAAGGUCCUUAUCGGUGCGGCACAUGCAGGUACUAC [theeternabot_sameState_KL_FMN_A_41],215 nM
8,UGAUACCAGGCGGCCGCCACUCCUGCAGGUCAAAGACCUGUGAAGCUGGUUCUCCAGUGAUGUUGGAGGACCGGGCCUGGUAUCU [FiskerMod 27 - Jieux - Exclusion - Tryptophan B],202 nM
9,AAGGCACGGCUUCGGCCGUGCCAAAUAGAUACCAGCAUAAUAAUAUGCCCUUGGCAGCUAAAUAGAAAUUCAGUGAUGUUGGAUA [SS Theo A Tesla 2.1],597 nM
10,AGAUGUUUAGCUCAAAGAACGAAAAUGGAAGGAGCGUGCGAAAGCACAGGUAGGUCGCCAGUGAUGUUGGAACCUGAGCAUCAAA [#SwitchBubble 16 #K4Late],316 nM
11,UUAACCAACAGCGAUACCAGCGUGGAGUGAUGUUCCGAGGAUCGGAGUGAUGUUCCGAAGCGCCCUUGGCAGCGCAGAAGCGCAA [Exclusion Theophylline B GF8],193 nM
12,ACCUACCAUUAGUGAUGUUAAUGGACGGAAGGAGCGCAGAUAUCUGCAGGUAGGUCGCCGAAGGCUAGACAUUGUCUAGCCAUUA [AK1.1 SS Arginine A],227 nM
13,CCUAUCUCUUACGAUACCAGUCAAUGAUAUUUUAUCAAUGCCCUCACCGAGUGAUGUUCGGACCCUUGGCAGCGUAUGGGAUAGG [kjnjmullin],241 nM
14,GUUACGCAUGGAAGGAGCGCGAAUUUAAUUAGUGAGUGAUGUUCACAUAAAAUGUAUAAUACGCAGGUAGGUCGCCAUGUGUAAC [whbob_Ex_Arginine_B_2th163],81.9 nM
15,UCCUGCAAUCCACCACGAAAGUGGAUGGAUACCAGAGUCGAAAGACUCCCUUGGCAGCCAGUGAUGUUGGAGCAGGUAAAAUAAA,526 nM
16,AGUUAUGUAUCAGGAUAUUAGUGAUGUUUGUUUUUGUUAGUGAUGUUGAUAUUUGUUUUAUGUAUUUAAGAAGGGAUUGAGAUGU [qsszmullin],68.2 nM
17,ACAGGAUCGAAGAUCCUGAGCAGUCAAAACCGAGGACCGGUACGGCCGCCACUCGGAGUGAUGUUCCGAAGACUGCAAAAUAAAA [#SwitchBubble 3],1090 nM
18,AAAUAAAGCAGUCACCCAGUGAUGUUGGAAGGAGCGUGCGAAAGCACAGGUAGGUCGCCAAAAUAAAGUGGCUGCGGCAAAGCCA [#SwitchBubble 25 #K4Early],409 nM
19,GCCAGAGCGCGAAGGAGCGCCCUGACAGGUUGCUGCCGUGGGCAGUGAUGUUGCUCAGUCCGGCAGGUAGGUCGCGUGCUCUGGC,222 nM
20,UGUCAUUGGUCGGCCGCCACUUCAAGGUCAAAGACCAAAGAGUGAUGUUCUAAGACGAAAGUCAGAAGGACCGGGACCGAUGACU [TrypBS 10 #SwitchBubble #K4Middle],168 nM
21,ACGCAUGGGCAAGGAUAUGGUAGUGAUGUUACCUUUGCGGUGCCGGGAACGAAUGACGGUCAUGCGCCAGAAGGUGCUCAGACAA [theeternabot_exclusion_KL_FMN_B_23],203 nM
22,AACUCUCAGACACUUGAGUGAUGUUCAGGCCGAGGACCGGUACGGCCGCCACUCGGGUCUGAGAGAGGUUAUCAAAGAUAGCCAA [Omei KL Tryp A SS A v5],350 nM
23,AAAUAGAUCAGUCAACCAGUGAUGUUGGAAGGAGCGUGCGAAAGCACAGGUAGGUCGCCAUAAUAAAAUUGGCUGAUCAAAAUAA,340 nM
24,ACUGAGUUGACGAAAGUCAACAAUUGAGAAGGAGCGCACGAAAGUGCAGGUAGGUCGCUCAGUCCAGUGAUGUUGGAUCAUCAGA [#17 K4 Arginine A Same State],324 nM
25,AAGUGAUGUUGUAGUGAUGUUGUGAUGUUGCAGGAUAUAUAGUGAUGUAGAAGGGUAUGUGCAGUGUUCUUAUUUGAGUGUUGAU [zffdmullin],80.1 nM
26,AGAGAUAAGGCGGCCGCCACUAAGAUGAAACUAACGGUCAAGUGAUGUUUGCGGUUACAGUUCAGUAGGACCGGGCCGAGUAAAU [theeternabot_sameState_KL_Trp_B_47],512 nM
